The target in assay [1] is Orbicella faveolata caspase-3b (Orbicella faveolata). The assay can be described thus: SEC; Superdex75 Increase 10/300GL; protein 1-5 mg/ml, 200 ul loaded; 30 mM potassium phosphate, pH 7.5, 1 mM DTT; column calibrated with the LMW calibration kit; protomer to dimer. In general terms: Size exclusion chromatography separates by hydrodynamic size, large species first.
The target of assay [2] is Porites astreoides caspase-3 (Porites astreoides). The assay is described as above.

Results on two substances are retold here after PMC7586219.

What is called stoichiometry N is a count of units in the complex or per binding partner. In assay [1], Orbicella faveolata caspase-3b (enzyme) registered a stoichiometry N of 2.
Substance Porites astreoides caspase-3 (enzyme) showed a stoichiometry N in assay [2] of 2.
